Laboratory results reported in patent CN116406375A (UNIV SHANGHAI TECHNOLOGY, dated 2023).

How the values were obtained:
[1] = molecular target: 真SARS-CoV-2病毒 Victoria/01/2020 的刺突 (SARS-CoV-2); test: cell-based or functional assay
HCoV-229E刺突 = molecular target: T1, HCoV-229E刺突 (HCoV-229E, UniProt P15423 16-1173); test: FACS on transfected HEK293T cells
T1 construct: whole, on cells
T1 sequence: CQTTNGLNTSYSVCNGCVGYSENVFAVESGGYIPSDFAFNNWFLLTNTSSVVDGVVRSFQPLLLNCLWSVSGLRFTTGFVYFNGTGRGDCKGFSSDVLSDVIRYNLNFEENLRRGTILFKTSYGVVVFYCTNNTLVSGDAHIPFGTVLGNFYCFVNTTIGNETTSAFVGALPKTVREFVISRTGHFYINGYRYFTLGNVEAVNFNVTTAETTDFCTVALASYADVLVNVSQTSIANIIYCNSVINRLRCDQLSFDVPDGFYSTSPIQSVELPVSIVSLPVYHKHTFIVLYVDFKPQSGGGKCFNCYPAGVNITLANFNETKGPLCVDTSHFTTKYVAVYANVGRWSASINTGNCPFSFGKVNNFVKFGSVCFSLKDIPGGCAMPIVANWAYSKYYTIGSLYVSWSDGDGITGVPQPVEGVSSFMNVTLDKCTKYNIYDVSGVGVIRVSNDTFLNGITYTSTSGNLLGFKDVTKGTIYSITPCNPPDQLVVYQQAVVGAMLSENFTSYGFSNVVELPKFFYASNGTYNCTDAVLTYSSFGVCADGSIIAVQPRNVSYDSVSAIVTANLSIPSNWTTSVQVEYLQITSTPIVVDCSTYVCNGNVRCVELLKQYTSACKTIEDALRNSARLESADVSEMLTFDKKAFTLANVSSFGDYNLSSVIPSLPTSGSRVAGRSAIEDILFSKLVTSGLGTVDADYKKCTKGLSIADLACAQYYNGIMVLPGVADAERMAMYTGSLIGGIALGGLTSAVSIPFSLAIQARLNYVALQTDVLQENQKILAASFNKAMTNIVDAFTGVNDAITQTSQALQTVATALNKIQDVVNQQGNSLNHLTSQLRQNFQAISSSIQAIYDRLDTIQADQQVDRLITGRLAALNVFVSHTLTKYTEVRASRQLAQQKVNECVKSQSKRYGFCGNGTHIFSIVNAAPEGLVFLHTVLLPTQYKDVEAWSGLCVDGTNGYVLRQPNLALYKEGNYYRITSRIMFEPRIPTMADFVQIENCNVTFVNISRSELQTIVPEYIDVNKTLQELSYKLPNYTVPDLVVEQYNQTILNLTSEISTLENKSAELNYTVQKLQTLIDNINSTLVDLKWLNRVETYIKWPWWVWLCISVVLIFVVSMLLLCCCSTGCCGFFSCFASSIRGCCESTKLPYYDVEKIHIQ

HCoV-HKU1刺突 = molecular target: T2, HCoV-HKU1刺突 (HCoV-HKU1, UniProt Q5MQD0 13-1356); test: FACS on transfected HEK293T cells
T2 construct: whole, on cells
T2 sequence: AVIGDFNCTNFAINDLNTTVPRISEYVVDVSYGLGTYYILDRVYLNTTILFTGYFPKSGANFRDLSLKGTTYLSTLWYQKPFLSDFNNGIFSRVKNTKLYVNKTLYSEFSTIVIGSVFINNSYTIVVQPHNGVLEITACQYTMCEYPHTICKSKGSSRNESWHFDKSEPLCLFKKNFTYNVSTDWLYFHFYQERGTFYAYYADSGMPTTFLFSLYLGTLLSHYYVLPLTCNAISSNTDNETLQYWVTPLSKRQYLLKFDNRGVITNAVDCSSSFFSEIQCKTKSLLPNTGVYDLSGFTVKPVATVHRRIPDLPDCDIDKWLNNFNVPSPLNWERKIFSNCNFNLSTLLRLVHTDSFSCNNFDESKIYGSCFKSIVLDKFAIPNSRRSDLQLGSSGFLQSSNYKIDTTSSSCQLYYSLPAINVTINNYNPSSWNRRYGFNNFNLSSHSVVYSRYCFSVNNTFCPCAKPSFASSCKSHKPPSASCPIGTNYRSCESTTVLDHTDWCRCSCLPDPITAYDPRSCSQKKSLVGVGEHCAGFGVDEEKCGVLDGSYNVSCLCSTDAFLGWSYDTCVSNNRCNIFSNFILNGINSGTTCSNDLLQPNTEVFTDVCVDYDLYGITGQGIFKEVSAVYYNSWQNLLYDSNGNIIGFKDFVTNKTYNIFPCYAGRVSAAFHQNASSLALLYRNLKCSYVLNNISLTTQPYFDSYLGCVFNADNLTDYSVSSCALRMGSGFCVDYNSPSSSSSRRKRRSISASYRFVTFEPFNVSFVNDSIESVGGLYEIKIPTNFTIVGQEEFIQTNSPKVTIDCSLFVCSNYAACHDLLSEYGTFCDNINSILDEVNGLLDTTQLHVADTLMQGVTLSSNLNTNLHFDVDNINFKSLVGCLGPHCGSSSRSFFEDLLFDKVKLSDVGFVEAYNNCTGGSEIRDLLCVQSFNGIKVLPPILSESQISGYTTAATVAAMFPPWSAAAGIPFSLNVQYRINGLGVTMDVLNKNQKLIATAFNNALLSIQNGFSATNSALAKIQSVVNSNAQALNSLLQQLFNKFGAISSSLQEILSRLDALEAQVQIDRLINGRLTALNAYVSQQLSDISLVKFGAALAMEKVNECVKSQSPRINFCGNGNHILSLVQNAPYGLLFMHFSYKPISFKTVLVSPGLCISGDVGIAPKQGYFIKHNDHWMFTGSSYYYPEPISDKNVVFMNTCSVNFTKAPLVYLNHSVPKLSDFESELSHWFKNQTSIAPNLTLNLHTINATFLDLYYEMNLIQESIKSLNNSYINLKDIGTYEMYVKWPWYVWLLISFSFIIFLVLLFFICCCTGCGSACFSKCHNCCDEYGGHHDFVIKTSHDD

HCoV-NL63刺突 = molecular target: T3, HCoV-NL63刺突 (HCoV-NL63, UniProt Q6Q1S2 19-1356); test: FACS on transfected HEK293T cells
T3 construct: whole, on cells
T3 sequence: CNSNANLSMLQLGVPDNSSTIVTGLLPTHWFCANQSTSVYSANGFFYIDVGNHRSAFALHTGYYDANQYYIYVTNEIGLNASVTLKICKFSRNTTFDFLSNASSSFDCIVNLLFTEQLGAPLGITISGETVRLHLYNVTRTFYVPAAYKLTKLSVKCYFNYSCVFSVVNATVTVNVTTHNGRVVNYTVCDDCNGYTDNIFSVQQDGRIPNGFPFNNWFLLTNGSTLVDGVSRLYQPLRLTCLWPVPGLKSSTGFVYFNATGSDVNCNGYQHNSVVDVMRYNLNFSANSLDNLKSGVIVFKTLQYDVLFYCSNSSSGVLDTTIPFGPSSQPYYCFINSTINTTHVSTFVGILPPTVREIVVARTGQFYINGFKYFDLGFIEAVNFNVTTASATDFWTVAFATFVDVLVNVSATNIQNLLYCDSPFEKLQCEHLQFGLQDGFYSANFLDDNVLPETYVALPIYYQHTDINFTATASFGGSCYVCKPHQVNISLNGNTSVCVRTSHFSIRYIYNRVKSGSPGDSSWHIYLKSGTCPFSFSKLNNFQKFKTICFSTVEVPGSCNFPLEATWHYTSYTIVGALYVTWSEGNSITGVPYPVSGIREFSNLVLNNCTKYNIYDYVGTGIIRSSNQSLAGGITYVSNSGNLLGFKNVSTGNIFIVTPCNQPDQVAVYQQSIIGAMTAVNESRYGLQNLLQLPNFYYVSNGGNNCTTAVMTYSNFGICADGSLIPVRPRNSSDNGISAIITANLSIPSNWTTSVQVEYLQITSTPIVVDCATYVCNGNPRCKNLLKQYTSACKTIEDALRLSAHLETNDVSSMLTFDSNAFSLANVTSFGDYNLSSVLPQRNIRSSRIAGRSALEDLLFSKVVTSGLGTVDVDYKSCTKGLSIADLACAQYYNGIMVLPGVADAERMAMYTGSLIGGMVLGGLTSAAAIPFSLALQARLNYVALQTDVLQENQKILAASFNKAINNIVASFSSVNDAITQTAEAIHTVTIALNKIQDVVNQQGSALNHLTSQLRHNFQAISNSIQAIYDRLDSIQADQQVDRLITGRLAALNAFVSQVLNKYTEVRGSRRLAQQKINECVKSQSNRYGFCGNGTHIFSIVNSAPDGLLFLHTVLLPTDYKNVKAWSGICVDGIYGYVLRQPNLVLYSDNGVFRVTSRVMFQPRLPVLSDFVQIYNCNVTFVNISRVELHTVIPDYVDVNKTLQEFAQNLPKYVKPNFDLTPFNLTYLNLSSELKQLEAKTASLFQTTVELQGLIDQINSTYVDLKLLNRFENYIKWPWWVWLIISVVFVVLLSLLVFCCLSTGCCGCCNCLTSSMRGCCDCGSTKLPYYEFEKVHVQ

HCoV-OC43刺突 = molecular target: T4, HCoV-OC43刺突 (HCoV-OC43, UniProt P36334 14-1353); test: FACS on transfected HEK293T cells
T4 construct: whole, on cells
T4 sequence: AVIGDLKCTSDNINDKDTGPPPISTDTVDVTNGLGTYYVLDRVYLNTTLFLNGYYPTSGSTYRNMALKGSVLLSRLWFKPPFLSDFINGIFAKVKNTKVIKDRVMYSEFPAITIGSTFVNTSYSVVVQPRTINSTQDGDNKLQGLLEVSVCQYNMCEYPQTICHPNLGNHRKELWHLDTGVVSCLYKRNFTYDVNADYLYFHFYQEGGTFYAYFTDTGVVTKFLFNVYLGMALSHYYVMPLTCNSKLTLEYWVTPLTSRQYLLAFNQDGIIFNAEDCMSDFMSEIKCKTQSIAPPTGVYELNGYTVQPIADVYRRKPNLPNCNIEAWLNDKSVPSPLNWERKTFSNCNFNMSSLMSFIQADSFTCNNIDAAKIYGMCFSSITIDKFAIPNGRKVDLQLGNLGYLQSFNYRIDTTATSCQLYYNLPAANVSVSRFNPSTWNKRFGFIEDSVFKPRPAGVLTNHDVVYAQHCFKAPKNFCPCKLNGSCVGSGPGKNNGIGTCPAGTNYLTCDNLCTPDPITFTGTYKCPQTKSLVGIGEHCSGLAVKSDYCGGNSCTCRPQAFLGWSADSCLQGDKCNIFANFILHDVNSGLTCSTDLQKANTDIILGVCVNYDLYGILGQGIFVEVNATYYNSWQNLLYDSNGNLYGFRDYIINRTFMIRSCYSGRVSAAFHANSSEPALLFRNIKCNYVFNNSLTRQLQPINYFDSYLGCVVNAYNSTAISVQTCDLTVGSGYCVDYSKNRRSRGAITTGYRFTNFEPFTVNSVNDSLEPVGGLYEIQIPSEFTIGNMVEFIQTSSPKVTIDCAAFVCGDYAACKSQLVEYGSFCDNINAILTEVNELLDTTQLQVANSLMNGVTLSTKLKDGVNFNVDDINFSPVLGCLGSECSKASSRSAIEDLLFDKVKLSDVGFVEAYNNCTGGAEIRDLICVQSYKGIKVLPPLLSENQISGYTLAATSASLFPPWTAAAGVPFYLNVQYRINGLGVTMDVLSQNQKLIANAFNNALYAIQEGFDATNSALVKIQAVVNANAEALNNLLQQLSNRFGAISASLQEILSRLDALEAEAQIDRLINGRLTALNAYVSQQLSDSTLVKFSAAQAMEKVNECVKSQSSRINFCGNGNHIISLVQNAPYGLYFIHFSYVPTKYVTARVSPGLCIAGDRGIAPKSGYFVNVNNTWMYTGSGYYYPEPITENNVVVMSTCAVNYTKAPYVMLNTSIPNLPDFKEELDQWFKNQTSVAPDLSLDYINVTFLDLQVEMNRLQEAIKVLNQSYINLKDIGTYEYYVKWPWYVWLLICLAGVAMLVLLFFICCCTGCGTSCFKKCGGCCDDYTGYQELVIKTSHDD

B1: S-E6 (antibody, V domains shown)
VH: QVTLRESGPGLVKPSETLSLTCAVSGGSLSSVNYYWSWIRQHPGKGLEWIGYIYYSGSTNYNPSLKSRVTMSLDTSKNQFSLKLSSVTAADTAVYYCATPGAIMGALHIWGQGTLVTVSS
VL: QAVLTQPSSASSTPGQRVIISCSGSSSNIGSNTVSWYQQVPGAAPKLLIYFDYRRPSGVPDRFSGTRSGTSASLGISGLQSEDEADYYCAAWDDSLSAWVFGRGTKLTVLG
notes: also called S-E6二聚体; 二聚体S-E6
NT50, 真病毒中和 (Victoria/01/2020) [1]: 0.15 nM
binding result (HCoV-229E刺突): no binding
binding result (HCoV-HKU1刺突): no binding
binding result (HCoV-NL63刺突): no binding
binding result (HCoV-OC43刺突): no binding

B2: S-B8 (antibody, V domains shown)
VH: QVQLVQSGGGLIQPGGSLRLSCAASGFTVSLSHMNWVRQAPGKGLEWVSITYGDGNSDYADSVKGRFTISRDNSKNTLYLQMNSLRAEDTAVYYCAREYYYGMDVWGQGTTVTVSS
VL: not shown
notes: also called S-B8二聚体
NT50, 真病毒中和 (Victoria/01/2020) [1]: 0.88 nM
binding result (HCoV-229E刺突): no binding
binding result (HCoV-HKU1刺突): no binding
binding result (HCoV-NL63刺突): no binding
binding result (HCoV-OC43刺突): no binding

B3: S-D4 (antibody, V domains shown)
VH: QVQLQESGGGVVQPGRSLRLSCEVSGFTFSDYGMHWVRQAPGKGLEWVAVIWSEGSTEYYADSVKGRFTISRDNSKDTLYLQMNSLRAEDTAVYYCARPGYPTSTDRSPAAAGARQYYYYGMDVWGQGTTVTVSS
VL: NFMLTQPHSVSESPGKTVTISCTRSGGSGAANYVQWYQQRPGSSPTTLIYEDSRRPPGVPDRFSGSVDTSSNSASLTISGLQTEDEADYYCQSYDSSNHVVFGGGTKLTVLG
notes: also called S-D4二聚体; S-D4 IgG4
NT50, 真病毒中和 (Victoria/01/2020) [1]: 2.04 nM
binding result (HCoV-229E刺突): no binding
binding result (HCoV-HKU1刺突): no binding
binding result (HCoV-NL63刺突): no binding
binding result (HCoV-OC43刺突): no binding
